Substitutions are numbered along the chain they refer to.
T1: VEGFR-3-Fc (UniProt P35916 25-328)
T1 construct: domain: first three Ig domains; conditioned supernatant of 293T cells; also called VEGFR-3-Fc fusion protein; not shown: Fc fragment of the pIg vector
T1 sequence (looked up): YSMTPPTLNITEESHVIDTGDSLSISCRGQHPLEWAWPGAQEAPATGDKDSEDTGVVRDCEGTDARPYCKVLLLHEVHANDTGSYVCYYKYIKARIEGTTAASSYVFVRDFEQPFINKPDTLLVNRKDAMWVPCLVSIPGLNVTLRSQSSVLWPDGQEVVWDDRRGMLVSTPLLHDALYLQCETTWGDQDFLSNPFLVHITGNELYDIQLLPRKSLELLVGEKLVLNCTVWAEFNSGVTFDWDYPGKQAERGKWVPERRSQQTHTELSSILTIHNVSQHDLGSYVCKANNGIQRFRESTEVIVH

B1: 41-9 (ligand)
chain: AHYNTEILKFMDVYQRSYCHPREVCIDVGKEYPDEIEYIFKPSCVPLMRCGGCCNDEGLECVPTEESNITMQIMRITVPLSQGPKPVTISFLQHNKCECRPKKD
B2: 41-11 (ligand)
chain: B1 chain with D56S, E60Q
B3: 41-6 (ligand)
chain: AHYNTEILKFMDVYQRSYCHPREVCIDVGKEYPDEIEYIFKPSCVPLMRCGGCCNDEGLECMNTSTSYLSKTLFEIKPHQGQHIGEMSFANHTSCRCMSKLD
B4: 34-11 (ligand)
chain: GQNHHEVVKSIDNEWRKTQCMPIETLVDIFQEFGVATNTFFKPSCVPLMRCGGCCNSEGLQCVPTEESNITMQIMRITVPLSQGPKPVTISFLQHNKCECRPKKD
B5: 34-13 (ligand)
chain: B4 chain with S57D, Q61E, L93A, Q94N, N96T, K97S, E99R, R101M, P102S, K104L
B6: 34-15 (ligand)
chain: B4 chain with L93A, Q94N, N96T, K97S, E99R, R101M, P102S, K104L
B7: 34-14 (ligand)
chain: GQNHHEVVKSIDNEWRKTQCMPIETLVDIFQEFGVATNTFFKPSCVPLMRCGGCCNDEGLECMNTSTSYLSKTLFEITVPLSQGPKPVTISFANHTSCRCMSKLD
B8: 33-13 (ligand)
chain: GQNHHEVVKSIDNEWRKTQCMPIETLVDIFQEYPDEIEYIFKPPCVSVYRCGGCCNDEGLECVPTEESNITMQIMRITVPLSQGPKPVTISFANHTSCRCMSKLD
B9: 33-15 (ligand)
chain: B8 chain with D57S, E61Q
B10: 21-1 (ligand)
chain: AHYNTEILKSIDNEWRKTQCMPREVCIDVGKEYPDEIEYIFKPSCVPLMRCGGCCNDEGLECVPTEESNITMQIMRIKPHQGQHIGEMSFLQHNKCECRPKKD
B11: 21-3 (ligand)
chain: B10 chain with D57S, E61Q
B12: 33-5 (ligand)
chain: GQNHHEVVKSIDNEWRKTQCMPIETLVDIFQEYPDEIEYIFKPPCVSVYRCGGCCNDEGLECVPTEESNITMQIMRIKPHQGQHIGEMSFANHTSCRCMSKLD
B13: 33-7 (ligand)
chain: B12 chain with D57S, E61Q
B14: 33-4 (ligand)
chain: GQNHHEVVKSIDNEWRKTQCMPIETLVDIFQEYPDEIEYIFKPPCVSVYRCGGCCNSEGLQCMNTSTSYLSKTLFEIKPHQGQHIGEMSFLQHNKCECRPKKD
B15: 33-8 (ligand)
chain: B14 chain with L91A, Q92N, N94T, K95S, E97R, R99M, P100S, K102L
B16: 33-6 (ligand)
chain: B14 chain with S57D, Q61E, L91A, Q92N, N94T, K95S, E97R, R99M, P100S, K102L
B17: 33-14 (ligand)
chain: GQNHHEVVKSIDNEWRKTQCMPIETLVDIFQEYPDEIEYIFKPPCVSVYRCGGCCNDEGLECMNTSTSYLSKTLFEITVPLSQGPKPVTISFANHTSCRCMSKLD
B18: 33-16 (ligand)
chain: B17 chain with D57S, E61Q
B19: 34-1 (ligand)
chain: GQNHHEVVKSIDNEWRKTQCMPIETLVDIFQEFGVATNTFFKPSCVPLMRCGGCCNDEGLECVPTEESNITMQIMRIKPHQGQHIGEMSFLQHNKCECRPKKD
B20: 34-5 (ligand)
chain: B19 chain with L91A, Q92N, N94T, K95S, E97R, R99M, P100S, K102L
B21: 34-7 (ligand)
chain: B19 chain with D57S, E61Q, L91A, Q92N, N94T, K95S, E97R, R99M, P100S, K102L
B22: 34-3 (ligand)
chain: B19 chain with D57S, E61Q

These binders were tested against T2, VEGFR-1-Fc (UniProt P17948 27-338) (assay: receptor-Fc IP).
T2 construct: domain: first three Ig domains; expressed in Drosophila S2 cells, purified on Protein A sepharose; also called VEGFR-1-Fc fusion protein; not shown: Fc fragment from the Signal-pIgPlus vector
How it was run: (§1)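 Binding of ligand from sample supernatant measured by pentahistidine-antibody immunoprecipitation. IP mix: PBS with 1.5% BSA, 0.06% Tween 20, 3 μg/ml heparin and 400 ng/ml fusion protein, added 1:2 to sample supernatant.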

T2 sequence (P17948 27-338): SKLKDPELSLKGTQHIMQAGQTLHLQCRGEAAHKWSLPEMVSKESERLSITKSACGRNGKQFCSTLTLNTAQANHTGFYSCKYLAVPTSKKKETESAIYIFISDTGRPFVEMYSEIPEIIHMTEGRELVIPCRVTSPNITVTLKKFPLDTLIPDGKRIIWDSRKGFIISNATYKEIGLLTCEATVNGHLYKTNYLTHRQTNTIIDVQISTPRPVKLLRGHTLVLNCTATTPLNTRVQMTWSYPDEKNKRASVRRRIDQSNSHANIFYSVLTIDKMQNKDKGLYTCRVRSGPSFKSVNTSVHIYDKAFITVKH

Row | binding result | Binder
1 | no binding | B1
2 | no binding | B2
3 | no binding | B3
4 | no binding | B4
5 | no binding | B5
6 | no binding | B6
7 | no binding | B7
8 | no binding | B8
9 | no binding | B9
10 | no binding | B10
11 | no binding | B11
12 | no binding | B12
13 | no binding | B13
14 | no binding | B14
15 | no binding | B15
16 | no binding | B16
17 | no binding | B17
18 | no binding | B18
19 | no binding | B19
20 | no binding | B20
21 | no binding | B21
22 | no binding | B22

The binders below were run against T3, VEGFR-2-Fc (UniProt P35968 20-322) (assay: receptor-Fc IP).
T3 construct: domain: first 3 Ig domains; conditioned supernatant of 293T cells; also called VEGFR-2-Fc fusion protein; not shown: Fc fragment of the pIg vector
How it was run: as §1

T3 sequence (P35968 20-322): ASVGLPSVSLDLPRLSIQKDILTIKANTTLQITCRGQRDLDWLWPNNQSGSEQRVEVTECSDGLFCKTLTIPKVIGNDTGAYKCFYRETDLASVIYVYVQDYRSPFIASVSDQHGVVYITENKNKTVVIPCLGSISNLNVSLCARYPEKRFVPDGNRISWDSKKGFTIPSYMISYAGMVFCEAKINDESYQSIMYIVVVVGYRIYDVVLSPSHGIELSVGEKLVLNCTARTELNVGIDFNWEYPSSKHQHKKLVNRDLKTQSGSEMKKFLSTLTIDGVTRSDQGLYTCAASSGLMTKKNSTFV

Row | binding result | Binder
23 | no binding | B1
24 | no binding | B2
25 | no binding | B3
26 | no binding | B4
27 | no binding | B5
28 | no binding | B6
29 | no binding | B7
30 | no binding | B8
31 | no binding | B9
32 | no binding | B10
33 | no binding | B11
34 | no binding | B12
35 | no binding | B13
36 | no binding | B14
37 | no binding | B15
38 | no binding | B16
39 | no binding | B17
40 | no binding | B18
41 | no binding | B19
42 | no binding | B20
43 | no binding | B21
44 | no binding | B22

What follows are binders tested against T1, VEGFR-3-Fc (assay: receptor-Fc IP).
How it was run: as §1

Row | binding result | Binder
45 | no binding | B1
46 | no binding | B2
47 | no binding | B3
48 | no binding | B4
49 | no binding | B5
50 | no binding | B6
51 | no binding | B7
52 | no binding | B8
53 | no binding | B9
54 | no binding | B10
55 | no binding | B11
56 | no binding | B12
57 | no binding | B13
58 | no binding | B14
59 | no binding | B15
60 | no binding | B16
61 | no binding | B17
62 | no binding | B18
63 | no binding | B19
64 | no binding | B20
65 | no binding | B21
66 | no binding | B22

From patent publication US20080058263A1 (published 2008)
